In US20260242478A1 (published 2026):

Columns and labels:
PSMA Fab [1] = molecular target: T1, PSMA Fab; experiment: clonal phage ELISA; biotinylated PSMA Fab on neutravidin plate; anti-M13 HRP detection
T1 construct: also called Anti-PSMA Fab; 006 PSMA Fab
Method: (§1) Clonal phage were harvested as crude supernatants and screened via standard ELISAs. […] Prior to the addition of clonal phage. wells were incubated with blocking buffer and PSMA antigen or blocking buffer alone. Without washing or aspirating, clonal phage supernatants were then added to the wells and incubated for a short time. Wells were then washed followed by detection of bound phage using a horse radish conjugated anti-M13 antibody.

PSMA Fab [2] = molecular target: T1, PSMA Fab; experiment: clonal phage ELISA; biotinylated PSMA Fab on neutravidin plate, wells pre-incubated with PSMA antigen as competitor; anti-M13 HRP detection;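 also: crude clonal phage supernatants added to antigen-treated wells without a wash, incubated briefly, then bound phage read out via horse radish–conjugated anti-M13 antibody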
Method: as §1

PSMA Fab (006 PSMA Fab) [3] = molecular target: T2, PSMA Fab (006 PSMA Fab); experiment: phage ELISA; biotinylated PSMA Fab on neutravidin plate, clonal phage supernatant, anti-M13 HRP; blocking buffer alone
T2 construct: also called Anti-PSMA Fab; anti-PSMA Fab
Method: as §1

PSMA Fab (006 PSMA Fab) [4] = molecular target: T2, PSMA Fab (006 PSMA Fab); experiment: phage ELISA; biotinylated PSMA Fab on neutravidin plate pre-incubated with PSMA antigen as competitor, clonal phage supernatant, anti-M13 HRP
Method: as §1

PSMA Fab (006 PSMA Fab) [5] = molecular target: T3, PSMA Fab (006 PSMA Fab) (biotinylated for capture on neutravidin plates (site not stated)); experiment: phage ELISA as above, wells pre-incubated with PSMA antigen as competitor
T3 construct: also called Anti-PSMA Fab; anti-PSMA Fab

PSMA Fab (006 PSMA Fab) [6] = molecular target: T3, PSMA Fab (006 PSMA Fab); experiment: phage ELISA: clonal phage supernatant on biotinylated PSMA Fab captured on neutravidin plate, anti-M13-HRP detection
Method: as §1

PSMA Fab [7] = molecular target: T4, PSMA Fab (biotinylated (site not stated)); experiment: phage ELISA: clonal phage on biotinylated PSMA Fab captured on neutravidin, anti-M13-HRP detection, blocking buffer alone
T4 construct: also called Anti-PSMA Fab; 006 PSMA Fab

PSMA Fab [8] = molecular target: T4, PSMA Fab; experiment: phage ELISA on captured PSMA Fab pre-incubated with PSMA antigen as competitor, anti-M13-HRP detection
Method: as §1

B1: Phage-3258 (peptide)
peptide: QPGYCVPQWMCMGF
PSMA Fab [1]
  Phage binding ELISA signal, Anti-PSMA Fab: 1.92
PSMA Fab [2]
  Phage binding ELISA signal, Anti-PSMA Fab in presence of PSMA: 0.0948

B2: Phage-3248 (peptide)
peptide: VTHSCVPAWMCVGL
PSMA Fab (006 PSMA Fab) [3]
  Phage binding ELISA signal, Anti-PSMA Fab: 1.93
PSMA Fab (006 PSMA Fab) [4]
  Phage binding ELISA signal, Anti-PSMA Fab with PSMA antigen: 0.091

B3: Phage-3279 (peptide)
peptide: GEPWCIPSWMCQGF
notes: Peptide-180 library clone, tested as clonal M13 phage displaying the peptide fused to pIII
PSMA Fab (006 PSMA Fab) [5]
  Phage binding ELISA signal, Anti-PSMA Fab in presence of PSMA: 0.091
PSMA Fab (006 PSMA Fab) [6]
  Phage binding ELISA signal, Anti-PSMA Fab: 1.9

B4: Phage-3277 (peptide)
peptide: PARMCVPAWMCSVL
notes: as for B3
PSMA Fab (006 PSMA Fab) [5]
  Phage binding ELISA signal, Anti-PSMA Fab in presence of PSMA: 0.0732
PSMA Fab (006 PSMA Fab) [6]
  Phage binding ELISA signal, Anti-PSMA Fab: 1.9

B5: Phage-3262 (peptide)
peptide: VSIVCVPEWMCSGF
PSMA Fab [1]
  Phage binding ELISA signal, Anti-PSMA Fab: 1.92
PSMA Fab [2]
  Phage binding ELISA signal, Anti-PSMA Fab in presence of PSMA: 0.0721

B6: Phage-3247 (peptide)
peptide: GLALCKPAWMCQGF
PSMA Fab (006 PSMA Fab) [3]
  Phage binding ELISA signal, Anti-PSMA Fab: 1.93
PSMA Fab (006 PSMA Fab) [4]
  Phage binding ELISA signal, Anti-PSMA Fab with PSMA antigen: 0.0706

B7: Phage-3256 (peptide)
peptide: DGFICRPEWMCQWL
PSMA Fab [1]
  Phage binding ELISA signal, Anti-PSMA Fab: 1.93
PSMA Fab [2]
  Phage binding ELISA signal, Anti-PSMA Fab in presence of PSMA: 0.0653

B8: Phage-3281 (peptide)
peptide: VERMCKPEWMCFGF
notes: Peptide-180 library clone, tested as clonal phage supernatant with the peptide fused to pIII of the bacteriophage
PSMA Fab [7]
  Phage binding ELISA signal, Anti-PSMA Fab: 1.9
PSMA Fab [8]
  Phage binding ELISA signal, Anti-PSMA Fab with PSMA antigen: 0.102

B9: Phage-3244 (peptide)
peptide: LSAMCVPPWMCTGF
PSMA Fab (006 PSMA Fab) [3]
  Phage binding ELISA signal, Anti-PSMA Fab: 1.94
PSMA Fab (006 PSMA Fab) [4]
  Phage binding ELISA signal, Anti-PSMA Fab with PSMA antigen: 0.138

B10: Phage-3249 (peptide)
peptide: MMHNCIPYWMCAGF
PSMA Fab (006 PSMA Fab) [3]
  Phage binding ELISA signal, Anti-PSMA Fab: 1.93
PSMA Fab (006 PSMA Fab) [4]
  Phage binding ELISA signal, Anti-PSMA Fab with PSMA antigen: 0.101

B11: Phage-3269 (peptide)
peptide: ISPRCEPLWMCTGL
notes: as for B3
PSMA Fab (006 PSMA Fab) [5]
  Phage binding ELISA signal, Anti-PSMA Fab in presence of PSMA: 0.0836
PSMA Fab (006 PSMA Fab) [6]
  Phage binding ELISA signal, Anti-PSMA Fab: 1.91

B12: Phage-3287 (peptide)
peptide: ESLLCKPKWMCDWL
notes: Peptide-180 library clone, tested as clonal phage supernatant with the peptide fused to pIII
PSMA Fab [7]
  Phage binding ELISA signal, Anti-PSMA Fab: 1.89
PSMA Fab [8]
  Phage binding ELISA signal, Anti-PSMA Fab with PSMA antigen: 0.0996

B13: Phage-3282 (peptide)
peptide: MEHWCVPAWMCSGF
notes: as for B12
PSMA Fab [7]
  Phage binding ELISA signal, Anti-PSMA Fab: 1.89
PSMA Fab [8]
  Phage binding ELISA signal, Anti-PSMA Fab with PSMA antigen: 0.264

B14: Phage-3276 (peptide)
peptide: EFQMCVPEWMCTGL
notes: as for B3
PSMA Fab (006 PSMA Fab) [5]
  Phage binding ELISA signal, Anti-PSMA Fab in presence of PSMA: 0.0838
PSMA Fab (006 PSMA Fab) [6]
  Phage binding ELISA signal, Anti-PSMA Fab: 1.9

B15: Phage-3250 (peptide)
peptide: NVPVCIPDWMCVGF
PSMA Fab (006 PSMA Fab) [3]
  Phage binding ELISA signal, Anti-PSMA Fab: 1.93
PSMA Fab (006 PSMA Fab) [4]
  Phage binding ELISA signal, Anti-PSMA Fab with PSMA antigen: 0.0851

B16: Phage-3246 (peptide)
peptide: QDIVCRPSWMCHGF
PSMA Fab (006 PSMA Fab) [3]
  Phage binding ELISA signal, Anti-PSMA Fab: 1.94
PSMA Fab (006 PSMA Fab) [4]
  Phage binding ELISA signal, Anti-PSMA Fab with PSMA antigen: 0.0762

B17: Phage-3252 (peptide)
peptide: MPMHCVPSWMCEGF
PSMA Fab (006 PSMA Fab) [3]
  Phage binding ELISA signal, Anti-PSMA Fab: 1.93
PSMA Fab (006 PSMA Fab) [4]
  Phage binding ELISA signal, Anti-PSMA Fab with PSMA antigen: 0.0901

B18: Phage-3259 (peptide)
peptide: AEMRCIPQWMCSGL
PSMA Fab [1]
  Phage binding ELISA signal, Anti-PSMA Fab: 1.92
PSMA Fab [2]
  Phage binding ELISA signal, Anti-PSMA Fab in presence of PSMA: 0.138

B19: Phage-3275 (peptide)
peptide: FDRICKPAWMCIEF
notes: as for B3
PSMA Fab (006 PSMA Fab) [5]
  Phage binding ELISA signal, Anti-PSMA Fab in presence of PSMA: 0.0573
PSMA Fab (006 PSMA Fab) [6]
  Phage binding ELISA signal, Anti-PSMA Fab: 1.9

B20: Phage-3254 (peptide)
peptide: YGALCVPAWMCSGF
PSMA Fab [1]
  Phage binding ELISA signal, Anti-PSMA Fab: 1.93
PSMA Fab [2]
  Phage binding ELISA signal, Anti-PSMA Fab in presence of PSMA: 0.0866

B21: Phage-3286 (peptide)
peptide: PTLRCEPLWMCAGF
notes: as for B12
PSMA Fab [7]
  Phage binding ELISA signal, Anti-PSMA Fab: 1.89
PSMA Fab [8]
  Phage binding ELISA signal, Anti-PSMA Fab with PSMA antigen: 0.0911

B22: Phage-3255 (peptide)
peptide: IVPWCKPAWMCAVS
PSMA Fab [1]
  Phage binding ELISA signal, Anti-PSMA Fab: 1.93
PSMA Fab [2]
  Phage binding ELISA signal, Anti-PSMA Fab in presence of PSMA: 0.12

B23: Phage-3245 (peptide)
peptide: NILRCEPMWMCTGF
PSMA Fab (006 PSMA Fab) [3]
  Phage binding ELISA signal, Anti-PSMA Fab: 1.94
PSMA Fab (006 PSMA Fab) [4]
  Phage binding ELISA signal, Anti-PSMA Fab with PSMA antigen: 0.0977
